# B1: Interleukin-17F (Homo sapiens), Q96PD4 (parent)
# chain: MTVKTLHGPAMVKYLLLSILGLAFLSEAAARKIPKVGHTFFQKPESCPPVPGGSMKLDIGIINENQRVSMSRNIESRSTSPWNYTVTWDPNRYPSEVVQAQCRNLGCINAQGKEDISMNSVPIQQETLVVRRKHQGCSVSFQLEKVLVTVGCTCVTPVIHHVQ
# B2: Interleukin-17F (Homo sapiens), Q96PD4 (parent)
# chain: B1 chain
# partner: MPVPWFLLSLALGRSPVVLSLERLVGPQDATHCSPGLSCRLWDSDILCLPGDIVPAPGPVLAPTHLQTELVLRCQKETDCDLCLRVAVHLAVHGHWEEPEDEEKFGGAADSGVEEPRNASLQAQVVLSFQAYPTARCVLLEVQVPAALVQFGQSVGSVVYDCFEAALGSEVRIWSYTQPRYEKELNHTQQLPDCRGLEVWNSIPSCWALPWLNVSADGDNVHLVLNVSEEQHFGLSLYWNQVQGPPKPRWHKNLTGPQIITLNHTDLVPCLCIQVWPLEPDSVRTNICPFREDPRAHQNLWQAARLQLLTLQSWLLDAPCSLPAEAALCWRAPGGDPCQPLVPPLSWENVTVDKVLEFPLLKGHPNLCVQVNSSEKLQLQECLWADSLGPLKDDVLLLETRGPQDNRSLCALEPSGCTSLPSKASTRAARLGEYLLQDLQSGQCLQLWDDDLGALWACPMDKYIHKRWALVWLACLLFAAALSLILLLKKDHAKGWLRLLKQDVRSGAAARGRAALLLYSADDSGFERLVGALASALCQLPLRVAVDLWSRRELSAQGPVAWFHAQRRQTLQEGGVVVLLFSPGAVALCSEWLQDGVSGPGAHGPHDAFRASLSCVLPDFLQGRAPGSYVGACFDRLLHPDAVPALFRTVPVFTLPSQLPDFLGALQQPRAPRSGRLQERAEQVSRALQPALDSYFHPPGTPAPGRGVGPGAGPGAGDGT
# Variants of: B1
# Details: with IL17RA
row,Variant,effect of a mutation on the interaction
1,MTVKTLHGPAMVKYLLLSILGLAFLSEAAARKIPKVGHTFFQKPESCPPVPGGSMKLDIGIINENQRVSMSRNIESASTSPWNYTVTWDPNRYPSEVVQAQCRNLGCINAQGKEDISMNSVPIQQETLVVRRKHQGCSVSFQLEKVLVTVGCTCVTPVIHHVQ [R77A],decreasing interaction strength

# Variants of: B2
# Details: with IL17RC
row,Variant,effect of a mutation on the interaction
1,MTVKTLHGPAMVKYLLLSILGLAFLSEAAARKIPKVGHTFFQKPESCPPVPGGSMKLDIGIINENQRVSMSRNIESASTSPWNYTVTWDPNRYPSEVVQAQCRNLGCINAQGKEDISMNSVPIQQETLVVRRKHQGCSVSFQLEKVLVTVGCTCVTPVIHHVQ [R77A],decreasing interaction strength

# Source: IntAct's records for PubMed 28827714
